In US20150110744A1 (INTER K, published 2015):

Assays:
Experiment in all cases: cell-based or functional assay
c-Src (h) = c-Src (h) (human (printed as '(h)'), UniProt P12931 1-536, limits assumed)
Akt2 (PKB beta) = Akt2 (PKB beta) (human (printed as '(h)'), UniProt P31751 1-481, limits assumed)
Akt3 (PKB gamma) = Akt3 (PKB gamma) (human (printed as '(h)'), UniProt Q9Y243 1-479, limits assumed)
Sequence of Akt3 (PKB gamma) (human (printed as '(h)'), UniProt Q9Y243 1-479, limits assumed) (Q9Y243 whole entry): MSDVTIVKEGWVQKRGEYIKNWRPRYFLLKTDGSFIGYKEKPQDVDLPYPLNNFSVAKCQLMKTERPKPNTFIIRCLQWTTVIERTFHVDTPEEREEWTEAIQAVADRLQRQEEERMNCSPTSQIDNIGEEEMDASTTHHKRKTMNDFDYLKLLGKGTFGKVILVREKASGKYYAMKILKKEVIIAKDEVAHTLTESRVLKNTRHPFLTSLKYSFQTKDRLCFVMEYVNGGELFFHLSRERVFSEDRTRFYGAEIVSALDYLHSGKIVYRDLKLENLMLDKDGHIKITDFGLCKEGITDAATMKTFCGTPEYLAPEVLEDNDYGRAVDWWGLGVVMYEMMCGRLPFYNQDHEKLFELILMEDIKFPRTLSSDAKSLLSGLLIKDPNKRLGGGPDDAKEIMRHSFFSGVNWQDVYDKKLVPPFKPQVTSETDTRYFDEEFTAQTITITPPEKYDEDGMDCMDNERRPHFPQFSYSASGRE

Sequence of Akt2 (PKB beta) (human (printed as '(h)'), UniProt P31751 1-481, limits assumed) (P31751 whole entry): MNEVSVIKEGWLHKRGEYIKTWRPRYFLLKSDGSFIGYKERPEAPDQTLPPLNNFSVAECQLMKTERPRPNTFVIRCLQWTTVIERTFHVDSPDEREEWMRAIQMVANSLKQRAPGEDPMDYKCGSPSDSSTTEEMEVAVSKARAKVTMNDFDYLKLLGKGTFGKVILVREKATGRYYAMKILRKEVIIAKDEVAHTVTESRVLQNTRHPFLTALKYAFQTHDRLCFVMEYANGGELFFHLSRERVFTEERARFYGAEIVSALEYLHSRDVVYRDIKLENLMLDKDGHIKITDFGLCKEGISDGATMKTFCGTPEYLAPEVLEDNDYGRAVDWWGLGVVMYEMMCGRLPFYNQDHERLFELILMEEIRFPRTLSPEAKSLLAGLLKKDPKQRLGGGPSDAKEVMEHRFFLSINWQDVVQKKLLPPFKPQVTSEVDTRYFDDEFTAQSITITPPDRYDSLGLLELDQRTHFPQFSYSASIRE

Binder	Inhibitory Activity (%), cell-free in vitro kinase assay, peptide 50 µM (c-Src (h)) [%]	Inhibitory Activity (%), cell-free in vitro kinase assay, peptide 50 µM (Akt2 (PKB beta)) [%]	Inhibitory Activity (%), cell-free in vitro kinase assay, peptide 50 µM (Akt3 (PKB gamma)) [%]
RVKVKVVVVR [RVKVKVVVVR peptide]	43	89	93
RAKAKAAAAR [RAKAKAAAAR peptide]	27	0	52
RAAKAARAAK [RAAKAARAAK peptide]	3	0	2
RSKAKNPLYR [RSKAKNPLYR peptide (β6 integrin derived)]	53	3	8
